The values below come from US20200199241A1 (Chugai, published 2020).

This test has as its target T1, soluble human FcRn complexed with β2-microglobulin (human, UniProt P61769 21-119, limits assumed).
T1 construct: also called hFcRn
As to the kind of experiment: Biacore SPR, pH 7.0.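 Note: test antibodies captured on a Protein L chip with human FcRn flowed over as analyte, KD obtained as the ratio of dissociation to association rate constants.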

T1 sequence (chain, as listed by the source limits assumed, chain 1 of 2): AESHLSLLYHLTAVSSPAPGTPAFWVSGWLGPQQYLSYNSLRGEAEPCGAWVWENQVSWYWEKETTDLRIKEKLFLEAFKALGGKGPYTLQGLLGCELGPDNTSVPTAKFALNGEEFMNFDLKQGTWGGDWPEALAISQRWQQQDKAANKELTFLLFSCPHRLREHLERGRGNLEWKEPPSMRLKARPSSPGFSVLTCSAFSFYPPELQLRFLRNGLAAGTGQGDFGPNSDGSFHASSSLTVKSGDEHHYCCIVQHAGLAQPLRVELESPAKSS
T1 sequence (P61769 21-119 limits assumed, chain 2 of 2): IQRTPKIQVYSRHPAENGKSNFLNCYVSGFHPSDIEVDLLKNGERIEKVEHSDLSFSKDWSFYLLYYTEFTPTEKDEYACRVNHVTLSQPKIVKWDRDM

B1: IgG1-F1117 (antibody)
heavy: QVQLQESGPGLVKPSETLSLTCAVSGHSISHDHAWSWVRQPPGEGLEWIGFISYSGITNYNPSLQGRVTISRDNSKNTLYLQMNSLRAEDTAVYYCARSLARTTAMDYWGEGTLVTVSSASTKGPSVFPLAPSSKSTSGGTAALGCLVKDYFPEPVTVSWNSGALTSGVHTFPAVLQSSGLYSLSSVVTVPSSSLGTQTYICNVNHKPSNTKVDKKVEPKSCDKTHTCPPCPAPELLGGPSVFLFPPKPKDVLYISRTPEVTCVVVDVSHEDPEVKFNWYVDGVEVHNAKTKPREEQYNSTYRVVSVLQVLHADWLNGKEYKCKVSNKALPAPIEKTISKAKGQPREPQVYTLPPSRDELTKNQVSLTCLVKGFYPSDIAVEWESNGQPENNYKTTPPVLDSDGSFFLYSKLTVDKSRWQQGNVFNCSVMHEALHYHVTQKSLSLSP
light: not shown
notes: EU numbering; copies: 2 + 2
As to B1, the Kd was 48.7 nM.

B2: IgG1-F1119 (antibody)
heavy: QVQLQESGPGLVKPSETLSLTCAVSGHSISHDHAWSWVRQPPGEGLEWIGFISYSGITNYNPSLQGRVTISRDNSKNTLYLQMNSLRAEDTAVYYCARSLARTTAMDYWGEGTLVTVSSASTKGPSVFPLAPSSKSTSGGTAALGCLVKDYFPEPVTVSWNSGALTSGVHTFPAVLQSSGLYSLSSVVTVPSSSLGTQTYICNVNHKPSNTKVDKKVEPKSCDKTHTCPPCPAPELLGGPSVFLFPPKPKDVLYISRTPEVTCVVVDVSHEDPEVKFNWYVDGVEVHNAKTKPREEQYNSTYRVVSVLQPLHADWLNGKEYKCKVSNKALPAPIEKTISKAKGQPREPQVYTLPPSRDELTKNQVSLTCLVKGFYPSDIAVEWESNGQPENNYKTTPPVLDSDGSFFLYSKLTVDKSRWQQGNEFSCSVMHEALHYHVTQKSLSLSP
light: not shown
notes: EU numbering; copies: 2 + 2
The molecule B2 yielded a Kd of 10.3 nM.

B3: IgG1-F1118 (antibody)
heavy: QVQLQESGPGLVKPSETLSLTCAVSGHSISHDHAWSWVRQPPGEGLEWIGFISYSGITNYNPSLQGRVTISRDNSKNTLYLQMNSLRAEDTAVYYCARSLARTTAMDYWGEGTLVTVSSASTKGPSVFPLAPSSKSTSGGTAALGCLVKDYFPEPVTVSWNSGALTSGVHTFPAVLQSSGLYSLSSVVTVPSSSLGTQTYICNVNHKPSNTKVDKKVEPKSCDKTHTCPPCPAPELLGGPSVFLFPPKPKDVLYISRTPEVTCVVVDVSHEDPEVKFNWYVDGVEVHNAKTKPREEQYNSTYRVVSVLQPLHADWLNGKEYKCKVSNKALPAPIEKTISKAKGQPREPQVYTLPPSRDELTKNQVSLTCLVKGFYPSDIAVEWESNGQPENNYKTTPPVLDSDGSFFLYSKLTVDKSRWQQGNVFNCSVMHEALHYHVTQKSLSLSP
light: not shown
notes: EU numbering; copies: 2 + 2
Turning to B3, the Kd was 13.2 nM.

B4: IgG1-F1121 (antibody)
heavy: QVQLQESGPGLVKPSETLSLTCAVSGHSISHDHAWSWVRQPPGEGLEWIGFISYSGITNYNPSLQGRVTISRDNSKNTLYLQMNSLRAEDTAVYYCARSLARTTAMDYWGEGTLVTVSSASTKGPSVFPLAPSSKSTSGGTAALGCLVKDYFPEPVTVSWNSGALTSGVHTFPAVLQSSGLYSLSSVVTVPSSSLGTQTYICNVNHKPSNTKVDKKVEPKSCDKTHTCPPCPAPELLGGPSVFLFPPKPKDVLYISRTPEVTCVVVDVSHEDPEVKFNWYVDGVEVHNAKTKPREEQYNSTYRVVSVLQPLHADWLNGKEYKCKVSNKALPAPIEKTISKAKGQPREPQVYTLPPSRDELTKNQVSLTCLVKGFYPSDIAVEWESNGQPENNYKTTPPVLDSDGSFFLYSKLTVDKSRWQQGNEFRCSVMHEALHYHVTQKSLSLSP
light: not shown
notes: EU numbering; copies: 2 + 2
With B4, binding was characterised by a dissociation constant (Kd) of 10.4 nM.

B5: IgG1-F1120 (antibody)
heavy: QVQLQESGPGLVKPSETLSLTCAVSGHSISHDHAWSWVRQPPGEGLEWIGFISYSGITNYNPSLQGRVTISRDNSKNTLYLQMNSLRAEDTAVYYCARSLARTTAMDYWGEGTLVTVSSASTKGPSVFPLAPSSKSTSGGTAALGCLVKDYFPEPVTVSWNSGALTSGVHTFPAVLQSSGLYSLSSVVTVPSSSLGTQTYICNVNHKPSNTKVDKKVEPKSCDKTHTCPPCPAPELLGGPSVFLFPPKPKDVLYISRTPEVTCVVVDVSHEDPEVKFNWYVDGVEVHNAKTKPREEQYNSTYRVVSVLQPLHADWLNGKEYKCKVSNKALPAPIEKTISKAKGQPREPQVYTLPPSRDELTKNQVSLTCLVKGFYPSDIAVEWESNGQPENNYKTTPPVLDSDGSFFLYSKLTVDKSRWQQGNVFRCSVMHEALHYHVTQKSLSLSP
light: not shown
notes: EU numbering; copies: 2 + 2
B5 yielded a Kd of 10.4 nM.

Usually Kd stands for the free concentration of one partner at which half of the binding sites on the other are occupied at equilibrium, for simple one-to-one binding. The low end stands for tighter binding, the high end for weaker binding.
